Laboratory results as given in the Human Domainome abundance scans (Beltran et al. 2025).
± gives the uncertainty stated by the source.

B1: Neutrophil cytosol factor 2, residues 456 to 514; numbered along this chain, P19878 (parent)
chain: LKKGSQVEALFSYEATQPEDLEFQEGDIILVLSKVNEEWLEGECKGKVGIFPKVFVEDC

Variants of: B1
Test: abundance fitness (aPCA) (normalised: wild type 0, dead -1); higher = more abundant; growth selection in yeast, the domain comes from the species named
Details: Homo sapiens

| Variant | abundance fitness |
| --- | --- |
| P52S | -0.585 ± 0.13 |
| P52I | -0.766 ± 0.18 |
| P52A | -0.305 ± 0.13 |
| P52T | -0.341 ± 0.14 |
| P52W | -0.953 ± 0.43 |
| G4C | -0.371 ± 0.23 |
| G4I | 0.575 ± 0.31 |
| G4L | -0.83 ± 0.21 |
| G4F | -0.312 ± 0.49 |
| I50Y | -0.208 ± 0.14 |
| I50E | -0.58 ± 0.32 |
| I50H | -0.371 ± 0.18 |
| F55M | 0.111 ± 0.23 |
| F55Y | 0.152 ± 0.11 |
| F55T | -0.133 ± 0.18 |
| F55C | 0.597 ± 0.082 |
| F55A | 0.034 ± 0.11 |
| F55I | -0.599 ± 0.19 |
| E19T | -0.055 ± 0.12 |
| E19W | -0.166 ± 0.17 |
| E19V | -0.443 ± 0.12 |
| E19F | -0.676 ± 0.14 |
| E19P | -1.06 ± 0.34 |
| E19N | 0.156 ± 0.1 |

| Variant | abundance fitness |
| --- | --- |
| E19H | -0.096 ± 0.13 |
| D27H | -0.488 ± 0.18 |
| D27Y | -0.613 ± 0.13 |
| D27W | -0.674 ± 0.26 |
| D27T | -0.695 ± 0.29 |
| D27L | -0.28 ± 0.11 |
| D27E | -0.933 ± 0.44 |
| D58M | -0.203 ± 0.29 |
| D58F | -0.718 ± 0.21 |
| D58S | 0.022 ± 0.1 |
| D58Q | -0.079 ± 0.29 |
| D58E | 0.091 ± 0.21 |
| D58K | 0.351 ± 0.26 |
| D58T | 0.133 ± 0.16 |
| D58Y | -0.595 ± 0.15 |
| K34T | 0.4 ± 0.097 |
| K34W | -0.437 ± 0.31 |
| K34F | -0.459 ± 0.13 |
| K34H | 0.059 ± 0.12 |
| K34R | -0.47 ± 0.12 |
| K34E | 0.466 ± 0.14 |
| E25N | -0.015 ± 0.18 |
| E25W | -0.78 ± 0.36 |
| E25M | -0.264 ± 0.34 |

| Variant | abundance fitness |
| --- | --- |
| L10K | -0.611 ± 0.31 |
| L10P | -0.539 ± 0.27 |
| L10G | -0.57 ± 0.29 |
| D20H | 0.904 ± 0.074 |
| D20W | -0.7 ± 0.3 |
| D20M | 0.06 ± 0.17 |
| D20A | -0.198 ± 0.12 |
| D20I | -0.375 ± 0.13 |
| D20L | -0.071 ± 0.12 |
| E41N | -0.635 ± 0.14 |
| E41Q | 0.238 ± 0.3 |
| E41K | 0.367 ± 0.1 |
| E41W | -0.267 ± 0.23 |
| E41Y | 0.47 ± 0.079 |
| E41F | 0.248 ± 0.083 |
| E41A | -0.394 ± 0.14 |
| E41G | -0.157 ± 0.1 |
| V56D | -0.412 ± 0.16 |
| V56K | -0.637 ± 0.48 |
| V56W | -0.46 ± 0.27 |
| V56C | -0.52 ± 0.16 |
| V56R | -0.637 ± 0.16 |
| V56P | -1.09 ± 0.48 |
| V56A | -0.719 ± 0.18 |

| Variant | abundance fitness |
| --- | --- |
| V54T | 0.18 ± 0.12 |
| V54C | 0.378 ± 0.078 |
| V54Y | -0.03 ± 0.12 |
| V54G | -0.209 ± 0.097 |
| V54A | 0.431 ± 0.11 |
| C59A | 0.057 ± 0.21 |
| C59D | -0.555 ± 0.23 |
| C59N | -0.242 ± 0.18 |
| C59L | -0.112 ± 0.21 |
| E57K | 0.201 ± 0.2 |
| E57G | 0.005 ± 0.13 |
| E57N | -0.194 ± 0.13 |
| E57M | -0.464 ± 0.21 |
| E57S | 0.271 ± 0.078 |
| E57P | -0.28 ± 0.21 |
| E37I | -0.445 ± 0.17 |
| E37A | -0.42 ± 0.14 |
| E37F | -0.697 ± 0.2 |
| E37L | -0.645 ± 0.15 |
| E37T | -0.171 ± 0.14 |
| Q24A | -0.186 ± 0.13 |
| Q24H | -0.035 ± 0.13 |
| Q24S | 0.286 ± 0.072 |
| Q24Y | -0.44 ± 0.21 |

| Variant | abundance fitness |
| --- | --- |
| V35E | -1.04 ± 0.48 |
| V35N | -0.517 ± 0.15 |
| V35D | -0.588 ± 0.17 |
| V35M | -0.081 ± 0.24 |
| V35Q | -0.302 ± 0.32 |
| V35K | -0.045 ± 0.23 |
| E43W | -0.435 ± 0.32 |
| E43R | -0.521 ± 0.15 |
| E43V | -0.654 ± 0.15 |
| E43F | -0.324 ± 0.1 |
| K53D | -0.61 ± 0.18 |
| K53N | -0.378 ± 0.15 |
| K53R | 0.195 ± 0.1 |
| K53G | 0.02 ± 0.1 |
| K53C | -0.848 ± 0.25 |
| K53W | -0.808 ± 0.46 |
| K53L | -0.749 ± 0.2 |
| W39Q | -0.864 ± 0.45 |
| W39P | -0.598 ± 0.2 |
| W39D | -0.598 ± 0.17 |
| W39N | -0.196 ± 0.11 |
| W39S | -0.666 ± 0.13 |
| W39A | -0.643 ± 0.17 |
| W39M | 0.036 ± 0.26 |

| Variant | abundance fitness |
| --- | --- |
| W39T | -0.735 ± 0.19 |
| L32C | -0.428 ± 0.13 |
| L32F | -0.118 ± 0.12 |
| L32M | -0.532 ± 0.49 |
| L32A | -0.297 ± 0.14 |
| L32Q | -0.143 ± 0.34 |
| L30A | -0.284 ± 0.13 |
| L30Q | 0.5 ± 0.16 |
| L30Y | 0.079 ± 0.094 |
| L30S | 0.469 ± 0.068 |
| L30M | 0.08 ± 0.17 |
| L30P | 0.04 ± 0.23 |
| L30W | -0.513 ± 0.33 |
| E14K | 0.217 ± 0.18 |
| E14F | -0.236 ± 0.11 |
| E14H | 0.236 ± 0.11 |
| E14T | 0.319 ± 0.093 |
| E14A | 0.059 ± 0.12 |
| G49H | -0.893 ± 0.28 |
| G49T | -0.951 ± 0.25 |
| G49P | -0.722 ± 0.3 |
| G49W | -0.137 ± 0.17 |
| G49I | -0.427 ± 0.11 |
| G49Y | -0.503 ± 0.12 |

| Variant | abundance fitness |
| --- | --- |
| I29P | 0.271 ± 0.19 |
| I29A | -0.53 ± 0.15 |
| I29R | -0.427 ± 0.13 |
| I29Q | -0.783 ± 0.38 |
| I29C | -0.497 ± 0.12 |
| I29L | -0.454 ± 0.12 |
| E38W | -0.396 ± 0.24 |
| E38S | -0.701 ± 0.13 |
| E38K | -0.649 ± 0.31 |
| E38R | -0.941 ± 0.21 |
| E38D | 0.028 ± 0.12 |
| E38Y | -0.266 ± 0.11 |
| G46W | -0.346 ± 0.21 |
| G46C | -0.479 ± 0.2 |
| G46I | -0.615 ± 0.15 |
| G46Y | -0.352 ± 0.14 |
| G46D | -0.703 ± 0.19 |
| G46H | -0.84 ± 0.34 |
| F23I | -0.374 ± 0.13 |
| F23T | -0.772 ± 0.22 |
| F23G | -0.198 ± 0.13 |
| F23V | -0.568 ± 0.16 |
| F51Y | -0.359 ± 0.11 |
